For one molecule, Kd results are on record in paper doi:10.1101/2020.05.05.065912.

Assay [1] addresses BRS-Myosin VI Tail-mRFP (UniProt Q9UM54). The experiment in a line: FRET or BRET. On the technique in general: Bioluminescence resonance energy transfer reports proximity on the nanometre scale.
The target is the same in assay [2]. The experiment in a line: FRET or BRET. This is another data set of the same source.

Read-outs that look alike come from different tables or passages of the source.

Chain of UniProt Q9UM54 (Q9UM54 whole entry): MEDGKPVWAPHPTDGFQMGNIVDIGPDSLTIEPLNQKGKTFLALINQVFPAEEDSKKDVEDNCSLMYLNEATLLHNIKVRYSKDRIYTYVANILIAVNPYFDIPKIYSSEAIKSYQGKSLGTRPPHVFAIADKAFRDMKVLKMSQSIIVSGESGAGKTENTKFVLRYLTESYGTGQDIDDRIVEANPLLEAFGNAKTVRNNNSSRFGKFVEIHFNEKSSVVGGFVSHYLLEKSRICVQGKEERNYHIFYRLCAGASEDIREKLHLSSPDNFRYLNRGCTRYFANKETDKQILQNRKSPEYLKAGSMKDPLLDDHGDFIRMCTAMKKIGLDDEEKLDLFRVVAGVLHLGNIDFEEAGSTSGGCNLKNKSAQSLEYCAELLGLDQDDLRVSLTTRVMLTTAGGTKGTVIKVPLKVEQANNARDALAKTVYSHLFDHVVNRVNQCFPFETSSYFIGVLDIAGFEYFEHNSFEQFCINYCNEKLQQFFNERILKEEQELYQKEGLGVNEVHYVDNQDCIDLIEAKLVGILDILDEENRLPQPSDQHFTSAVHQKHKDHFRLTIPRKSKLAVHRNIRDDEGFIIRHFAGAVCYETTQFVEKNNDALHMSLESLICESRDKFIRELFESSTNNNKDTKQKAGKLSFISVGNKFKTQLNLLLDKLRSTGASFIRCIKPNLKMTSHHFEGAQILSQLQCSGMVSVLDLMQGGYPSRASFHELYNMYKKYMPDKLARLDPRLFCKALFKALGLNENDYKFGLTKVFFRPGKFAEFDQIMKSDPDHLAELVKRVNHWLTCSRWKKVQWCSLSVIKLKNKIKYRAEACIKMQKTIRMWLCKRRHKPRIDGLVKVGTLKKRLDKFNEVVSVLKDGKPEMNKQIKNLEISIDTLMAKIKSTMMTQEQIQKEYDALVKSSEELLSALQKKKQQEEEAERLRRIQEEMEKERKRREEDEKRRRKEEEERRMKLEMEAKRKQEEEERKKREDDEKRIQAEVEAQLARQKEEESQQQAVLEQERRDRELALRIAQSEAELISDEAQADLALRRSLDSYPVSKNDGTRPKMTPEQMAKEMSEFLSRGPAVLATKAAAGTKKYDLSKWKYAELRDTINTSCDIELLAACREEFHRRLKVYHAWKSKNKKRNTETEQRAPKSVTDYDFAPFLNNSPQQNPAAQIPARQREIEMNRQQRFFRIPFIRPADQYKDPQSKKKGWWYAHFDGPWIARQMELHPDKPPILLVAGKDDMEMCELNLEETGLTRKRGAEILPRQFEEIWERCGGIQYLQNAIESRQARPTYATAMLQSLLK

B1: GFP-NDP52 (natural protein)
chain: MEETIKDPPTSAVLLDHCHFSQVIFNSVEKFYIPGGDVTCHYTFTQHFIPRRKDWIGIFRVGWKTTREYYTFMWVTLPIDLNNKSAKQQEVQFKAYYLPKDDEYYQFCYVDEDGVVRGASIPFQFRPENEEDILVVTTQGEVEEIEQHNKELCKENQELKDSCISLQKQNSDMQAELQKKQEELETLQSINKKLELKVKEQKDYWETELLQLKEQNQKMSSENEKMGIRVDQLQAQLSTQEKEMEKLVQGDQDKTEQLEQLKKENDHLFLSLTEQRKDQKKLEQTVEQMKQNETTAMKKQQELMDENFDLSKRLSENEIICNALQRQKERLEGENDLLKRENSRLLSYMGLDFNSLPYQVPTSDEGGARQNPGLAYGNPYSGIQESSSPSPLSIKKCPICKADDICDHTLEQQQMQPLCFNCPICDKIFPATEKQIFEDHVFCHSL
In general, Kd refers to the equilibrium constant for the complex coming apart. A high value points to lower affinity. As to B1, the equilibrium dissociation constant (Kd) with BRS-Myosin VI Tail-mRFP [1] worked out at 1.1 µM; with BRS-Myosin VI Tail-mRFP [2], 3.9 µM.
